Measured values taken from article doi:10.1101/2023.08.16.553618, “Structure of C. elegans TMC-2 complex suggests roles of lipid-mediated subunit contacts in mechanosensory transduction” (bioRxiv, 2023).

Target: the molecule itself
Test: cryo-EM structure; single particle cryo-EM of the native TMC-2 complex isolated from worms in GDN with 1 mM CaCl2; cis-dimeric particles; 2 nm carbon grids

B1: C. elegans TMC-2 (transmembrane channel-like protein 2), native, with C-terminal mVenus-3C-3xFLAG (natural protein, UniProt Q11069 1-1203, looked up)
chain: MPKSGAHQPLVRHDTDDGGETGQSVKSLADVSEEEIDSRMSRRSSVIADLLSLFRRSSSVLVRPHTRLGNPNFDDDDDEFDEEDDKEASKDRILKKIQQKKEIIQKLRGQPWYMKRKRRTLKVAQKHLQQQEAKVSKARLYKAEAGRRLTQASRWLDNLKIYLIPWEAKIRKIESHFGSVVSSYFTFHRWVLGVNITITFIMCMFVVIPEWLADSRTQFGDDRYNKTKAIKVMPPAVRARADELSTVWDFGGYFQYSLLFYGFYSKETFFGETIKYRVPVAYFFCNIFILGFSLFIILRKMAANNRRGTLSSGKTQQYLFNWKAFTGWDYTIGNPETAGNVYMANVIKFREAINDDKQKPSDKHPWIRFVARVLTNLFICAMYVFSIWAIMQCGTLKGEHFFAQNATAITISLITLVFPNIFDLLGKIEKLHPRNALRFQLGRVLVLYILNYYTLIYSLMLQLEHLQKEKNASDNPISALGHPGDAIGRTIRETVLPRYPVDNNPHTYYSYAPVTTTPIPATSSWTTVLPDFGPFGVYNPKASVTKDDTVFSSPVVETHMFGPNSDWNETTVNAASPTGATTRASLRMSQGGLCWETIIGQEITKLVTMDLYMTVASIFLIDFLRGLACRYLNLYWPWDLERTFPEYGEFKVAENVLHLVNNQGMIWLGLFFVPLLPMLNNIKLIILMYIRGWAAMTCNVPASQIFRASRSSNFFFALLILFLFLCTLPVGFVIASKTPSKSCGPFGNQSFFYSVITDVLHENLDKTLVNGIKYSLSPGIIIPVLVLLSLVIYFLIAMVTGLSQANQDLSFQLMVERTEEKKKIFELAGGKKKKSKDNTFGKQKPKQLLPPPTKGVSSDDDSQHNRSTAKSVSGRQFVPSLGSVSEVDHSTGEEQSSDSESTTSSLPPKLSLRQRFLVCIGWADPNKYGRHDDIEMEEGGGRLRELSTGSETDSDDEDSEKSNRDMSYRTAIQSFDQNSQSASASSSKSTTTAPSNSEMRIEITENPLHTYITPLRIEKKSSASSSSSSHQPSSSIEKQAARRLLQPISTTHNIRYGVATVENSSQDPTRPPSTDDSLGDPALHEPLWANLNPHSSYTSAMMSPIMNEVMSNDETTDDEKGRLIPDRPPIPHSPRELKRLKREKDQQSESGSKPSTPRPPRFRISMSPPRKPPSEKNDSDSSNRKYEMRVEKSPKKPKKSDND
modifications: N-glycans at N225 and N748 (density features)
notes: TMC-2, C. elegans, Wormbase B0416.1a; tag inserted prior to the stop codon of the endogenous gene; A 3C (PreScission) site lies between mVenus and 3xFLAG; The complex was captured by the 3xFLAG tag and eluted by 3C cleavage, so the sample for SEC, mass spectrometry and cryo-EM has mVenus but no 3xFLAG; Two copies stand in the cis-dimeric complex; Not modelled in 8TKP: M1-A88, A472-T582, …
  stoichiometry N: 2
